The results in this text go back to patent US20260125469A1 (Hoffmann-La Roche, published 2026).

The target of assay [1] is T1, human CD19 on cells (Nalm-6, Z-138) (human, UniProt P15391 20-556).
T1 sequence (looked up): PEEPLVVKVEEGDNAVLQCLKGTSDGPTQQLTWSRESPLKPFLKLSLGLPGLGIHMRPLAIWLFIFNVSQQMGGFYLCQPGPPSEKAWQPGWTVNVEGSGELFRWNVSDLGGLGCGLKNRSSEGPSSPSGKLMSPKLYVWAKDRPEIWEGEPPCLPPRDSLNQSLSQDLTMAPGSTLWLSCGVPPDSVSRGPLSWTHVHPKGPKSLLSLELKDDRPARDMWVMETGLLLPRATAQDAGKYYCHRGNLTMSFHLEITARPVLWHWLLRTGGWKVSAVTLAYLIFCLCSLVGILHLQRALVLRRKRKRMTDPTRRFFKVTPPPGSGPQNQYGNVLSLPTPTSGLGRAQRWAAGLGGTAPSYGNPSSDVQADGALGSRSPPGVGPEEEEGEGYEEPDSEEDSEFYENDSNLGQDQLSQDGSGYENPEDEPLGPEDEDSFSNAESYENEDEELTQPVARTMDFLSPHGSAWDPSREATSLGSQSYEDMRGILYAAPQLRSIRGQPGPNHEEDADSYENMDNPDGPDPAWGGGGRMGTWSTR
The assay is described as follows: cell-based or functional assay.

The target in assay [2] is T2, human CD3 on cells (CD3ε) (human, UniProt P07766 23-207).
T2 construct: CD3 complex as it stands on Jurkat cells or primary T cells; also called CD3-expressing Jurkat cells; CD3-expressing T cells
The assay is described as follows: flow cytometry on Jurkat cells. On the procedure: (§1) The binding of the CD19-TCB molecules prepared in Example 15 to human CD19- and CD3-expressing target cells was tested. Two CD19-expressing cell lines with different levels of CD19 expression were used. Nalm-6, an acute lymphoblastic leukemia (ALL) cell line with high CD 19 expression and Z-138 (Mantle cell lymphoma) with average expression levels. CD3-binding was assessed using immortalized T lymphocyte line (Jurkat cell line). Briefly, cells were harvested, counted, checked for viability and resuspended at 1×10⁶ cells/ml in FACS buffer (PBS+2% FCS+5 mM EDTA+0.25% sodium azide). […] Binding curves and the EC50 values related to binding were calculated using GraphPad Prism 7.
Background: In flow cytometry, cells or beads pass a laser one at a time.

Assay [3] has as its target T1, human CD19 on cells (Nalm-6, Z-138). Nature of the assay: flow cytometry on Nalm-6 cells. On the procedure:
as §1

Assay [4] addresses T3, CD19 extracellular domain (ECD)-Fc fusion (human, UniProt P01857 104-328 = IgG part).
T3 construct: Monovalent CD19 ECD on a knob-into-hole Fc; also called CD19 antigen; recombinant human CD19
The assay is described as follows: SPR, TCB captured by anti-PG antibody, CD19 ECD-Fc as analyte, 25°C. As to the method:
(§2) SPR experiments were performed, using the CD19-TCB molecules prepared in Example 15, on a Biacore T200 instrument at 25° C. with HBS-EP+ as running buffer (0.01 M HEPES pH 7.4, 0.15 M NaCl, 0.005% Surfactant P20 (GE Healthcare, #BR-1006-69)). Anti-PG antibody (see Example 3) was directly immobilized by amine coupling on a C1 chip (GE Healthcare). The different TCB molecules were captured at 25 nM. Three-fold dilution series (in HBS-EP from 0.14 to 100 nM) of the CD19 antigen (CD19 extracellular domain (ECD)-Fc fusion; see SEQ ID NOs 99 and 100) or the CD3 antigen (see Example 3, SEQ ID NOs 41 and 42) were passed over the ligand at 30 μl/min for 240 s to record the association phase. The dissociation phase was monitored for 1500 s (CD19 antigen) or 800 s (CD3 antigen)s and triggered by switching from the sample solution to HBS-EP+. The chip surface was regenerated after every cycle using two injections of 10 mM glycine pH 2.1 for 60 sec. Bulk refractive index differences were corrected for by subtracting the response obtained on the reference flow cell (without captured TCB). The affinity constants were derived from the kinetic rate constants by fitting to a 1:1 Langmuir binding using the Biaeval software (GE Healthcare). The measurement was performed with three independent dilution series.
For orientation: SPR reads the build-up and loss of mass on a sensor chip optically.

In assay [5] the target is T4, Human CD3ε stalk-Fc(knob)-Avi/CD3δ stalk-Fc(hole) (human).
T4 construct: Heterodimer of CD3 delta and CD3 epsilon ectodomains fused to human Fc with knob-into-hole; also called human CD3ε/δ; CD3 antigen
Nature of the assay: SPR, TCB captured by anti-PG antibody, human CD3ε/δ-Fc as analyte, 25°C. On the procedure: as §2

T2 sequence (P07766 23-207 limits assumed): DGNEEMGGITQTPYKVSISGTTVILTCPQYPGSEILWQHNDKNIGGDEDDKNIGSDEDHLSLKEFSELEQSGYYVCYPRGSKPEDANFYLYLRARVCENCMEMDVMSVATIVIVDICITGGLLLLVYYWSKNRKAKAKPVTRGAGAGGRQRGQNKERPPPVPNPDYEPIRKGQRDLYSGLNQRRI

B1: CD19-TCB, CD19(018) CD3orig (bispecific antibody, human IgG1, kappa, L234A L235A)
heavy 1: not shown
heavy 2: QVQLVQSGAEVKKPGASVKVSCKASGYTFTDYIMHWVRQAPGQGLEWMGYINPYNDGSKYTEKFQGRVTMTSDTSISTAYMELSRLRSDDTAVYYCARGTYYYGSALFDYWGQGTTVTVSSASTKGPSVFPLAPSSKSTSGGTAALGCLVEDYFPEPVTVSWNSGALTSGVHTFPAVLQSSGLYSLSSVVTVPSSSLGTQTYICNVNHKPSNTKVDEKVEPKSCDKTHTCPPCPAPEAAGGPSVFLFPPKPKDTLMISRTPEVTCVVVDVSHEDPEVKFNWYVDGVEVHNAKTKPREEQYNSTYRVVSVLTVLHQDWLNGKEYKCKVSNKALGAPIEKTISKAKGQPREPQVCTLPPSRDELTKNQVSLSCAVKGFYPSDIAVEWESNGQPENNYKTTPPVLDSDGSFFLVSKLTVDKSRWQQGNVFSCSVMHEALHNHYTQKSLSLSP
light 1: DIVMTQTPLSLSVTPGQPASISCKSSQSLENPNGNTYLNWYLQKPGQSPQLLIYRVSKRFSGVPDRFSGSGSGTDFTLKISRVEAEDVGVYYCLQLTHVPYTFGQGTKLEIKRTVAAPSVFIFPPSDRKLKSGTASVVCLLNNFYPREAKVQWKVDNALQSGNSQESVTEQDSKDSTYSLSSTLTLSKADYEKHKVYACEVTHQGLSSPVTKSFNRGEC
light 2: EVQLLESGGGLVQPGGSLRLSCAASGFTFSTYAMNWVRQAPGKGLEWVSRIRSKYNNYATYYADSVKGRFTISRDDSKNTLYLQMNSLRAEDTAVYYCVRHGNFGNSYVSWFAYWGQGTLVTVSSASVAAPSVFIFPPSDEQLKSGTASVVCLLNNFYPREAKVQWKVDNALQSGNSQESVTEQDSKDSTYSLSSTLTLSKADYEKHKVYACEVTHQGLSSPVTKSFNRGEC
notes: 2+1 IgG CrossFab, inverted; human IgG1 Fc, knob-into-hole, PGLALA
What is called EC50 is the midpoint of the concentration-response curve. By Kd is commonly meant the free concentration of one partner at which half of the binding sites on the other are occupied at equilibrium, for simple one-to-one binding. A high value points to a looser complex. As a reminder, the koff is a measure of how fast the partners let go of each other. Read a low koff as slow dissociation. The term kon denotes the rate constant with which the complex forms. Low values mean slower complex formation, high ones faster complex formation. In the case of B1, in assay [1], the “EC50 (pM) of tumor cell lysis, Nalm-6 target cells” value is 0.3 pM and the “EC50 (pM) of tumor cell lysis, Z-138 target cells” value was 5.4 pM. In assay [2], this molecule showed an EC50 of 115 nM. The molecule also returned an EC50 in assay [3] of 1.5 nM. In assay [4], this molecule gave a Kd of 0.95 nM, a dissociation rate constant (koff) of 0.000316 s⁻¹, an on-rate constant (kon) of 333000 M⁻¹ s⁻¹ and a t1/2 of 36.6 min. Further, in assay [5], the Kd stood at 3.57 nM, the koff was 0.00333 s⁻¹, the kon came out at 933000 M⁻¹ s⁻¹ and the t1/2 stood at 3.5 min.

B2: CD19-TCB, CD19(2B11) CD3 variant P035.093 (bispecific antibody, human IgG1, kappa, L234A L235A)
heavy 1: not shown
heavy 2: QVQLVQSGAEVKKPGASVKVSCKASGYTFTDYIMHWVRQAPGQGLEWMGYINPYNDGSKYTEKFQGRVTMTSDTSISTAYMELSRLRSDDTAVYYCARGTYYYGPQLFDYWGQGTTVTVSSASTKGPSVFPLAPSSKSTSGGTAALGCLVEDYFPEPVTVSWNSGALTSGVHTFPAVLQSSGLYSLSSVVTVPSSSLGTQTYICNVNHKPSNTKVDEKVEPKSCDKTHTCPPCPAPEAAGGPSVFLFPPKPKDTLMISRTPEVTCVVVDVSHEDPEVKFNWYVDGVEVHNAKTKPREEQYNSTYRVVSVLTVLHQDWLNGKEYKCKVSNKALGAPIEKTISKAKGQPREPQVCTLPPSRDELTKNQVSLSCAVKGFYPSDIAVEWESNGQPENNYKTTPPVLDSDGSFFLVSKLTVDKSRWQQGNVFSCSVMHEALHNHYTQKSLSLSP
light 1: DIVMTQTPLSLSVTPGQPASISCKSSQSLETSTGTTYLNWYLQKPGQSPQLLIYRVSKRFSGVPDRFSGSGSGTDFTLKISRVEAEDVGVYYCLQLLEDPYTFGQGTKLEIKRTVAAPSVFIFPPSDRKLKSGTASVVCLLNNFYPREAKVQWKVDNALQSGNSQESVTEQDSKDSTYSLSSTLTLSKADYEKHKVYACEVTHQGLSSPVTKSFNRGEC
light 2: EVQLLESGGGLVQPGGSLRLSCAASGFTFSSYAMNWVRQAPGKGLEWVSRIRSKYNNYATYYADSVKGRFTISRDDSKNTLYLQMNSLRAEDTAVYYCVRASNFPASYVSYFAYWGQGTLVTVSSASVAAPSVFIFPPSDEQLKSGTASVVCLLNNFYPREAKVQWKVDNALQSGNSQESVTEQDSKDSTYSLSSTLTLSKADYEKHKVYACEVTHQGLSSPVTKSFNRGEC
notes: as for B1
B2 registered an EC50 in assay [2] of 22.3 nM. This molecule came in with an EC50 in assay [3] of 0.6 nM. In assay [4], the Kd was 0.32 nM, the koff stood at 0.000146 s⁻¹, the kon turned out to be 458000 M⁻¹ s⁻¹ and the t1/2 worked out at 79.1 min. In assay [5], this molecule yielded a Kd of 0.38 nM, a koff of 0.00135 s⁻¹, an association rate constant (kon) of 3.56e+06 M⁻¹ s⁻¹ and a t1/2 of 8.6 min.

B3: CD19-TCB, CD19(2B11) CD3orig (bispecific antibody, human IgG1, kappa, L234A L235A)
heavy 1: not shown
heavy 2: QVQLVQSGAEVKKPGASVKVSCKASGYTFTDYIMHWVRQAPGQGLEWMGYINPYNDGSKYTEKFQGRVTMTSDTSISTAYMELSRLRSDDTAVYYCARGTYYYGPQLFDYWGQGTTVTVSSASTKGPSVFPLAPSSKSTSGGTAALGCLVEDYFPEPVTVSWNSGALTSGVHTFPAVLQSSGLYSLSSVVTVPSSSLGTQTYICNVNHKPSNTKVDEKVEPKSCDKTHTCPPCPAPEAAGGPSVFLFPPKPKDTLMISRTPEVTCVVVDVSHEDPEVKFNWYVDGVEVHNAKTKPREEQYNSTYRVVSVLTVLHQDWLNGKEYKCKVSNKALGAPIEKTISKAKGQPREPQVCTLPPSRDELTKNQVSLSCAVKGFYPSDIAVEWESNGQPENNYKTTPPVLDSDGSFFLVSKLTVDKSRWQQGNVFSCSVMHEALHNHYTQKSLSLSP
light 1: DIVMTQTPLSLSVTPGQPASISCKSSQSLETSTGTTYLNWYLQKPGQSPQLLIYRVSKRFSGVPDRFSGSGSGTDFTLKISRVEAEDVGVYYCLQLLEDPYTFGQGTKLEIKRTVAAPSVFIFPPSDRKLKSGTASVVCLLNNFYPREAKVQWKVDNALQSGNSQESVTEQDSKDSTYSLSSTLTLSKADYEKHKVYACEVTHQGLSSPVTKSFNRGEC
light 2: EVQLLESGGGLVQPGGSLRLSCAASGFTFSTYAMNWVRQAPGKGLEWVSRIRSKYNNYATYYADSVKGRFTISRDDSKNTLYLQMNSLRAEDTAVYYCVRHGNFGNSYVSWFAYWGQGTLVTVSSASVAAPSVFIFPPSDEQLKSGTASVVCLLNNFYPREAKVQWKVDNALQSGNSQESVTEQDSKDSTYSLSSTLTLSKADYEKHKVYACEVTHQGLSSPVTKSFNRGEC
notes: as for B1
Take B3: in assay [1], the “EC50 (pM) of tumor cell lysis, Nalm-6 target cells” value is 0.3 pM and the “EC50 (pM) of tumor cell lysis, Z-138 target cells” value worked out at 4.8 pM. In addition, the EC50 in assay [2] was found to be 203 nM. Moreover, the EC50 in assay [3] came to 0.7 nM. In assay [4], this molecule gave a Kd of 0.4 nM, a koff of 0.000176 s⁻¹, a kon of 434000 M⁻¹ s⁻¹ and a t1/2 of 65.6 min. Further, in assay [5], the Kd turned out to be 3.36 nM, the koff was found to be 0.00378 s⁻¹, the kon stood at 1.13e+06 M⁻¹ s⁻¹ and the t1/2 came to 3.1 min.
